Data on one molecule can be found in article doi:10.1101/2024.12.13.628402 (bioRxiv, 2024).

This test deals with T1, His6-YidC (E. coli, UniProt P25714 1-548).
T1 sequence (looked up): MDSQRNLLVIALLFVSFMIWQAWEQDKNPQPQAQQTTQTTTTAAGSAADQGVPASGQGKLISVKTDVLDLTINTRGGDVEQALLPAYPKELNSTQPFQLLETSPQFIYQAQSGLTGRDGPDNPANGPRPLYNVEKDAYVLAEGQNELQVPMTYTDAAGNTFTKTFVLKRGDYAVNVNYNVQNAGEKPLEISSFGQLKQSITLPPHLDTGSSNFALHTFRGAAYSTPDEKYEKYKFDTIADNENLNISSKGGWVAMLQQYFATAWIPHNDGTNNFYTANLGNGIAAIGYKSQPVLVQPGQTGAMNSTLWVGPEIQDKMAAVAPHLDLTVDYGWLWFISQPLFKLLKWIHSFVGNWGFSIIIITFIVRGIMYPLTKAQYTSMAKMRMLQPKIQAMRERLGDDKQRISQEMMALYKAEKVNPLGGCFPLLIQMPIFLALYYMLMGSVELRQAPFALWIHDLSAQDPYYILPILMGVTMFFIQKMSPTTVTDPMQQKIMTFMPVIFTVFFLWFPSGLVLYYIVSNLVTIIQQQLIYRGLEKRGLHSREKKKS
Nature of the test: native gel or EMSA.

B1: YibN-His6 (natural protein, E. coli, UniProt P0AG27 1-143, looked up)
chain: MQEIMQFVGRHPILSIAWIALLVAVLVTTFKSLTSKVKVITRGEATRLINKEDAVVVDLRQRDDFRKGHIAGSINLLPSEIKANNVGELEKHKDKPVIVVDGSGMQCQEPANALTKAGFAQVFVLKEGVAGWAGENLPLVRGK
For B1, the binding result is on record as “binds”.
